Biological target: T1, FKBP51, Q13451
T1 chain: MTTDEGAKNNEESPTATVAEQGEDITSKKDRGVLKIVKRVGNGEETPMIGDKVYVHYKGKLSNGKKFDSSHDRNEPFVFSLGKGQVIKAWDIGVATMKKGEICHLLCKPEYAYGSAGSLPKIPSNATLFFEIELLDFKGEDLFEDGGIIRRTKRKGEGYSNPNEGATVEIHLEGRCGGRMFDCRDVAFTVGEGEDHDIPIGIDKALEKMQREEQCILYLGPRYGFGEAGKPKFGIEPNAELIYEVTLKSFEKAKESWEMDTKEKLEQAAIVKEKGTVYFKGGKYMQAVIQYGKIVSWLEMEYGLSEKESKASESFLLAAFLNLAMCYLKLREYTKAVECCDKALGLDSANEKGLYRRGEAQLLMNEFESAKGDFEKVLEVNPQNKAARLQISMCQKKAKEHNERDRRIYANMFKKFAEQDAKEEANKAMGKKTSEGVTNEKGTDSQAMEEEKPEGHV
Test: ITC; 50 µM FKBP51 in the cell titrated with 750 µM p23; 25 °C; 25 mM HEPES, 10 mM KCl, 5 mM MgCl2, 1 mM DTT, pH 7.2; one set of binding sites
Details: remark: other sources report otherwise

Kd: 67 µM
B1: p23 wild-type (human co-chaperone p23, 160 amino acids), Q15185 1-160 (natural protein)
chain: MQPASAKWYDRRDYVFIEFCVEDSKDVNVNFEKSKLTFSCLGGSDNFKHLNEIDLFHCIDPNDSKHKRTDRSILCCLRKGESGQSWPRLTKERAKLNWLSVDFNNWKDWEDDSDEDMSNFDRFSEMMNNMGGDEDVDLPEVDGADDDSQDSDDEKMPDLE
